From patent US20250197490A1 (HBM ALPHA THERAPEUTICS, published 2025)

Legend:
[1] = molecular target: T1, corticotropin-releasing hormone (CRH) peptide (human and mouse, UniProt P01143 145-185 (rat entry), not fully specified); assay: cell-based or functional assay
T1 peptide: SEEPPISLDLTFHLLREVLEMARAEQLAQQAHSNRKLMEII

[2] = molecular target: T2, biotinylated CRH (human and mouse, UniProt P01143 145-185 (rat entry), not fully specified; biotin; which end is not stated for the result (NT-biotin and CT-biotin forms were used)); assay: ELISA, CRH (NT biotin)
T2 construct: also called biotin-CRH; CRH (NT biotin)
T2 peptide: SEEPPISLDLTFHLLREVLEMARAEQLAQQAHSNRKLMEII
Description: Streptavidin (Thermo, Cat: 21125) was diluted in PBS to a concentration of 2 μg/ml. 100 μl of diluted streptavidin was added per well to ELISA microplates, and the plates were incubated overnight at 4° C. […] Subsequently, plates were washed and incubated with HRP-conjugated goat anti-human IgG (H+L) antibody (Jackson, Cat: 109-035-088) at 37° C. for 1 hour. 100 μL of 3,3′,5,5′-tetramethylbenzidine (TMB) substrate (Biopanda, Cat: TMB-S-003) was added, and the plates were incubated at room temperature for 15 minutes. 100 μL of ELISA stopping solution (Solarbio, Cat #: C1058) was added to terminate the reaction, and the optical density at 450 nm (OD450 nm) was determined by an ELISA plate reader (Molecular Devices, Spectra max 384 plus).
These potential PTMs were mutated individually either in HCDR2 alone, in LCDR1 alone, or in various combinations of mutations, as detailed in Table 3. […] Most ΔPTM variants retained functional activities.

B1: PR302041 (antibody, human IgG1, kappa, V domains shown)
VH: EMQLVESGGGLVQPGGSLRLSCAASGFTFSNYWMNWVRQAPGKGLEWVAEIRLKSNNYATHYAESVKGRFTISRDDSKSSVYLQMNSLKTEDTAVYYCTVGTLVYWGQGTLVTVSS
VL: DIQLTQSPSSLSASVGDRVTITCRASQSVSTSTYNYMHWFQQKPGKAPKLLIKFASNLESGVPSRFSGSGSGTDFTLTISSLQPEDTATYYCQHSWEIPYTFGQGTKLEIKR
- unlabelled nM value (Table 5 matrix; likely hCRHR1-Luc IC50 as in Tables 6-8) [1]: 2.54 nM

B2: PR302055 (antibody, human IgG1, kappa, V domains shown)
VH: EMQLVESGGGLVQPGGSLKLSCAASGFTFSNYWMNWVRQASGKGLEWVAEIRLKSNNYATHYAESVKGRFTISRDDSKSTVYLQMNSLKTEDTAVYYCTVGTLVYWGQGTLVTVSS
VL: DIQLTQSPSSLSASVGDRVTITCRASQSVSTSTYNYMHWFQQKPGKAPKLLIKFASNLESGVPSRFSGSGSGTDFTLTISSLQPEDTATYYCQHSWEIPYTFGQGTKLEIKR
- unlabelled nM value (Table 5 matrix; likely hCRHR1-Luc IC50 as in Tables 6-8) [1]: 1.35 nM

B3: PR302034 (antibody, human IgG1, kappa, V domains shown)
VH: EVQLVESGGGLVQPGGSLRLSCAASGFTFSNYWMNWVRQAPGKGLEWVGEIRLKSNNYATHYAESVKGRFTISRDDSKNSLYLQMNSLKTEDTAVYYCTVGTLVYWGQGTLVTVSS
VL: DIQLTQSPSSLSASVGDRVTITCRASQSVSTSTYNYMHWFQQKPGKAPKLLIKFASNLESGVPSRFSGSGSGTDFTLTISSLQPEDTATYYCQHSWEIPYTFGQGTKLEIKR
- unlabelled nM value (Table 5 matrix; likely hCRHR1-Luc IC50 as in Tables 6-8) [1]: 6.87 nM

B4: PR302048 (antibody, human IgG1, kappa, V domains shown)
VH: EVQLVESGGGLVQPGGSLKLSCAASGFTFSNYWMNWVRQASGKGLEWVGEIRLKSNNYATHYAESVKGRFTISRDDSKNTAYLQMNSLKTEDTAVYYCTRGTLVYWGQGTLVTVSS
VL: DIQLTQSPSSLSASVGDRVTITCRASQSVSTSTYNYMHWFQQKPGKAPKLLIKFASNLESGVPSRFSGSGSGTDFTLTISSLQPEDTATYYCQHSWEIPYTFGQGTKLEIKR
- unlabelled nM value (Table 5 matrix; likely hCRHR1-Luc IC50 as in Tables 6-8) [1]: 6.66 nM

B5: PR302069 (antibody, human IgG1, kappa, V domains shown)
VH: EMQLVESGGGLVKPGGSLRLSCAASGFTFSNYWMNWVRQAPGKGLEWVAEIRLKSNNYATHYAESVKGRFTISRDDSKSTVYLQMNSLKTEDTAVYYCTVGTLVYWGQGTLVTVSS
VL: DIQLTQSPSSLSASVGDRVTITCRASQSVSTSTYNYMHWFQQKPGKAPKLLIKFASNLESGVPSRFSGSGSGTDFTLTISSLQPEDTATYYCQHSWEIPYTFGQGTKLEIKR
- unlabelled nM value (Table 5 matrix; likely hCRHR1-Luc IC50 as in Tables 6-8) [1]: 1.54 nM

B6: PR005657 (antibody, human IgG1, kappa, V domains shown)
VH: EVQLVESGGVLVQPGGSLRLSCAASGFTFSSYWMTWVRQAPGKGLEWVANIKQDASEKYYVDSVKGRFTISRDNAKNSLFLQMNSLRAEDTAVYYCARTLIFDYWGQGTLVTVSS
VL: DIVMTQSPLSLPVTPGEPASISCRSSQSLLHSTGYNSLEWYLQKPGQSPQLLIYLGSNRASGVPDRFSGSGSGTDFTLKISRVEAEDVGIYYCMQTLQTPITFGQGTRLEIKR
- EC50 (read off the curve) [2]: ~0.03 nM

B7: PR006146 (antibody, human IgG1, kappa, V domains shown)
VH: EVQLVESGGVLVQPGGSLRLSCAASGFTFSSYWMTWVRQAPGKGLEWVANIKQDASEKYYVDSVKGRFTISRDNAKNSLFLQMNSLRAEDTAVYYCARTLIFDYWGQGTLVTVSS
VL: DIVMTQSPLSLPVTPGEPASISCRSSQSLLHSTGYDSLEWYLQKPGQSPQLLIYLGSNRASGVPDRFSGSGSGTDFTLKISRVEAEDVGIYYCMQTLQTPITFGQGTRLEIKR
- binding result [2]: binds

B8: PR006150 (antibody, human IgG1, kappa, V domains shown)
VH: EVQLVESGGVLVQPGGSLRLSCAASGFTFSSYWMTWVRQAPGKGLEWVANIKQDSSEKYYVDSVKGRFTISRDNAKNSLFLQMNSLRAEDTAVYYCARTLIFDYWGQGTLVTVSS
VL: DIVMTQSPLSLPVTPGEPASISCRSSQSLLHSTGYDSLEWYLQKPGQSPQLLIYLGSNRASGVPDRFSGSGSGTDFTLKISRVEAEDVGIYYCMQTLQTPITFGQGTRLEIKR
- binding result [2]: binds

B9: PR006147 (antibody, human IgG1, kappa, V domains shown)
VH: EVQLVESGGVLVQPGGSLRLSCAASGFTFSSYWMTWVRQAPGKGLEWVANIKQDASEKYYVDSVKGRFTISRDNAKNSLFLQMNSLRAEDTAVYYCARTLIFDYWGQGTLVTVSS
VL: DIVMTQSPLSLPVTPGEPASISCRSSQSLLHSTGYHSLEWYLQKPGQSPQLLIYLGSNRASGVPDRFSGSGSGTDFTLKISRVEAEDVGIYYCMQTLQTPITFGQGTRLEIKR
- binding result [2]: binds

B10: PR006144 (antibody, human IgG1, kappa, V domains shown)
VH: EVQLVESGGVLVQPGGSLRLSCAASGFTFSSYWMTWVRQAPGKGLEWVANIKQEGSEKYYVDSVKGRFTISRDNAKNSLFLQMNSLRAEDTAVYYCARTLIFDYWGQGTLVTVSS
VL: DIVMTQSPLSLPVTPGEPASISCRSSQSLLHSTGYNPLEWYLQKPGQSPQLLIYLGSNRASGVPDRFSGSGSGTDFTLKISRVEAEDVGIYYCMQTLQTPITFGQGTRLEIKR
- binding result [2]: binds

B11: PR005662 (antibody, human IgG1, kappa, V domains shown)
VH: EVQLVESGGVLVQPGGSLRLSCAASGFTFSSYWMTWVRQAPGKGLEWVANIKQDASEKYYVDSVKGRFTISRDNAKNSLFLQMNSLRAEDTAVYYCARTLIFDYWGQGTLVTVSS
VL: DIVMTQSPLSLPVTPGEPASISCRSSQSLLHSTGYQSLEWYLQKPGQSPQLLIYLGSNRASGVPDRFSGSGSGTDFTLKISRVEAEDVGIYYCMQTLQTPITFGQGTRLEIKR
- EC50 (read off the curve) [2]: ~0.03 nM

B12: PR006148 (antibody, human IgG1, kappa, V domains shown)
VH: EVQLVESGGVLVQPGGSLRLSCAASGFTFSSYWMTWVRQAPGKGLEWVANIKQDASEKYYVDSVKGRFTISRDNAKNSLFLQMNSLRAEDTAVYYCARTLIFDYWGQGTLVTVSS
VL: DIVMTQSPLSLPVTPGEPASISCRSSQSLLHSTGYNPLEWYLQKPGQSPQLLIYLGSNRASGVPDRFSGSGSGTDFTLKISRVEAEDVGIYYCMQTLQTPITFGQGTRLEIKR
- binding result [2]: binds

B13: PR006149 (antibody, human IgG1, kappa, V domains shown)
VH: EVQLVESGGVLVQPGGSLRLSCAASGFTFSSYWMTWVRQAPGKGLEWVANIKQDASEKYYVDSVKGRFTISRDNAKNSLFLQMNSLRAEDTAVYYCARTLIFDYWGQGTLVTVSS
VL: DIVMTQSPLSLPVTPGEPASISCRSSQSLLHSTGYSSLEWYLQKPGQSPQLLIYLGSNRASGVPDRFSGSGSGTDFTLKISRVEAEDVGIYYCMQTLQTPITFGQGTRLEIKR
- binding result [2]: binds

B14: PR005658 (antibody, human IgG1, kappa, V domains shown)
VH: EVQLVESGGVLVQPGGSLRLSCAASGFTFSSYWMTWVRQAPGKGLEWVANIKQDGSEKYYVDSVKGRFTISRDNAKNSLFLQMNSLRAEDTAVYYCARTLIFDYWGQGTLVTVSS
VL: DIVMTQSPLSLPVTPGEPASISCRSSQSLLHSTGYQSLEWYLQKPGQSPQLLIYLGSNRASGVPDRFSGSGSGTDFTLKISRVEAEDVGIYYCMQTLQTPITFGQGTRLEIKR
- EC50 (read off the curve) [2]: ~0.03 nM

B15: PR006142 (antibody, human IgG1, kappa, V domains shown)
VH: EVQLVESGGVLVQPGGSLRLSCAASGFTFSSYWMTWVRQAPGKGLEWVANIKQEGSEKYYVDSVKGRFTISRDNAKNSLFLQMNSLRAEDTAVYYCARTLIFDYWGQGTLVTVSS
VL: DIVMTQSPLSLPVTPGEPASISCRSSQSLLHSTGYDSLEWYLQKPGQSPQLLIYLGSNRASGVPDRFSGSGSGTDFTLKISRVEAEDVGIYYCMQTLQTPITFGQGTRLEIKR
- binding result [2]: binds
